Assay results taken from publication PMC12159748.
pKd: −log10 of the molar value.

Experiments:
[1] = system: MBP-P6.9 NA-FLAG (7A, hypo-phosphorylation mimic) (Autographa californica multiple nucleopolyhedrovirus (AcMNPV)); experiment: fluorescence polarization; settings: FP: 50 mM HEPES pH 7.5, 0.005% sarcosyl, 100 mM NaCl, 0.5 mM EDTA, 1 mM DTT, 20 nM DNA, 1 h at 4 C, EMSA: 50 mM Tris pH 7.4, 100 mM NaCl, 1 mM EDTA
[2] = system: MBP-P6.9 NE-FLAG (7E, hyper-phosphorylation mimic) (Autographa californica multiple nucleopolyhedrovirus (AcMNPV)); experiment: fluorescence polarization; settings: FP: 50 mM HEPES pH 7.5, 0.005% sarcosyl, 100 mM NaCl, 0.5 mM EDTA, 1 mM DTT, 20 nM DNA, 1 h at 4 C, EMSA: 50 mM Tris pH 7.4, 100 mM NaCl, 1 mM EDTA

39-bp DNA
pKd [1]: 6.35
pKd [2]: 5.76
